Experimental data taken from patent US5405946A, “Recombinant protein S variants deficient in C4BP binding activity, compositions and therapeutic methods” (The Scripps Research Institute, priority 1992, dated 1995).
Where a chain is given by its changes, count along the chain named. Names may count otherwise. “Also recorded” adds a separate entry of the source. One block for each molecule: values may come before it.

Columns and labels:
C4BP = molecular target: T1, C4BP (Homo sapiens, UniProt P20851); details: PS association with C4BP in plasma; read-out: dissociation constant; cited from earlier work
T1 sequence (P20851 18-252): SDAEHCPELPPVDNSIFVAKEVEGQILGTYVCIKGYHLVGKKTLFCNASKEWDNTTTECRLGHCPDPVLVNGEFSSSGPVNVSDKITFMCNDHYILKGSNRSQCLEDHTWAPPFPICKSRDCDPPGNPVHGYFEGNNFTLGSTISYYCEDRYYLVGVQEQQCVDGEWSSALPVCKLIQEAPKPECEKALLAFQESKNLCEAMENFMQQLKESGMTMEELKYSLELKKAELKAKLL
T1 sequence (P04003 49-597 partner): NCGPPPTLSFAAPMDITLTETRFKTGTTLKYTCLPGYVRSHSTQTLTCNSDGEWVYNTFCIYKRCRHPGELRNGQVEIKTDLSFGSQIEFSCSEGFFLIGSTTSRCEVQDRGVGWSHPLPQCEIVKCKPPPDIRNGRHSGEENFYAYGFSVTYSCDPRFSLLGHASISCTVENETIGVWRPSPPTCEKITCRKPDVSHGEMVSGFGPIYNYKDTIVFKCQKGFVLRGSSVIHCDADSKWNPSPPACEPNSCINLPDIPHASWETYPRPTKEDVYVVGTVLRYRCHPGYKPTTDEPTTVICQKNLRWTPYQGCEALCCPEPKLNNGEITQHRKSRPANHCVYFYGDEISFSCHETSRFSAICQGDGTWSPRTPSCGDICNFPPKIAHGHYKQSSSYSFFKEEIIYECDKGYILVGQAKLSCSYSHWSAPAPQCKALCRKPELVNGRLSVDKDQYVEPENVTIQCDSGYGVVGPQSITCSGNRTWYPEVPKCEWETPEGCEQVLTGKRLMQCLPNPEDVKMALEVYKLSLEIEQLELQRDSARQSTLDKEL

[1] = molecular target: T2, human C4b-binding protein (C4BP) (Homo sapiens, UniProt P20851); assay: ELISA of complex formation between recombinant PS variant proteins and C4BP; details: C4BP 1 ug/ml, 18 hours room temperature
T2 sequence (P20851 18-252): T1 sequence (P20851 18-252)
T2 sequence (P04003 49-597 partner): T1 sequence (P04003 49-597 partner)
Description: The complex formation between the recombinant PS variant proteins and C4BP was measured with a sensitive ELISA using C4BP and a peroxidase conjugated anti-PS antibody as described by Chang et al., Thromb. Haemost., 67:526-532 (1992). Briefly, IgG at a concentration of 10 ug/ml from monoclonal antibody 8C11, which is directed against the alpha chain of C4BP (Hessing et al., J. Immunol., 144:204-208 (1990)), was coated in 50 mM NaHCO3 at pH 9.6 overnight at 4C. onto polyvinyl microtiter plates (Costar, Cambridge, Mass.). After washing to remove the unbound IgGs, the wells were blocked with 1% (w/v) BSA in 50 mM Tris-HCl at pH 7.5 containing 150 mM NaCl and 5 mM CaCl2 for 1 hour at room temperature. C4BP, prepared as described by Hessing et al., supra, was allowed to bind for 2 hours with a final concentration of 1 ug/ml. Increasing amounts of recombinant PS proteins (E424K, Q427E, K429E, […] and K432E) and wild-type recombinant PS prepared in Example 1 were then added in concentrations ranging from 0-150 ng/ml and maintained for 18 hours at room temperature. Bound proteins were allowed to bind to rabbit anti-human PS IgG conjugated to peroxidase (Dakopatts, Glostrup, Denmark) at a concentration of 0.3 ug/ml for 2 hours at room temperature. After washing the wells to remove the unbound proteins, 100 ul of 0.1M sodium phosphate/0.2M sodium citrate at pH 5.0 containing 0.04% 1,2-phenylenediamine dihydrochloride and 0.015% hydrogen peroxide was added. The hydrolysis of phenylenediamine was stopped by adding 50 ul 2N sulfuric acid. The absorbance was measured at 490 nm using a Vmax plate reader (Molecular Devices Corp., Menlo Park, Calif.). The data represented the mean of duplicate determinations.
The binding of the of the thrombin domain recombinant PS variants to C4BP was determined. The complex formation between the recombinant proteins and C4BP was measured with a sensitive ELISA using anti-C4BP monoclonal antibody 8C11 lgG, purified C4BP and peroxidase conjugated anti-PS antibody as described in Example 2A.
Anti-C4BP monoclonal antibody 8C11 IgG was coated onto microtiter wells to catch C4BP (1 ug/ml). Increasing amounts (0-100 ng/ml) of recombinant PS or variants (R49L, R60L, R70I, R49L/R60L, R60L/R70I, R49L/R70I and R49L/R60L/R70I) were added. Binding to C4BP was for 18 hours at room temperature. Bound PS variants were detected with anti-PS IgG conjugated to peroxidase (0.3 ug/ml). The results are the mean of duplicate values in two different experiments.

thrombin [2] = molecular target: T3, thrombin (Homo sapiens, UniProt P00734); assay: Reduced SDS-PAGE of PS variants with thrombin treatment; assay type: biochemical; details: reduced SDS gels
T3 construct: maintained with 1/20 vol (50 ul) of thrombin-Sepharose for 1 hour at 37C
Description: The purity and integrity of the recombinant PS variants was established by SDS-PAGE on 12.5% gradient gels according to Laemmli, Nature, 227:680-685 (1970) using the Phast system (Pharmacia Biotechnology, Sweden). After electrophoresis, the proteins were stained with silver nitrate or transferred onto Immobilon membranes for subsequent detection by Western blot analysis using rabbit anti-PS IgG conjugated to peroxidase (3 ug/ml).
For the thrombin-sensitive PS variant proteins, on reduced SDS gels, purified recombinant PS and the single and double variants all migrated as a doublet. […] The upper band of the doublet for recombinant PS and the single and double variants all could be converted into the lower band by thrombin treatment.

[3] = molecular target: activated protein C (APC) (Homo sapiens, UniProt P04070); assay: Activated partial thromboplastin time clotting assay, APC cofactor activity in PS- and C4BP-depleted plasma; assay type: biochemical
Description: (§1) An activated partial thromboplastin time clotting assay, using PS- and C4BP-depleted plasma, cephalin-kaolin reagent (Boehringer Mannhein, Indianapolis, Ind.), activated protein C (APC) and increasing amounts of recombinant PS variants was performed as described by Chang et al., Thromb. Haemost., 67:526-532 (1992). Briefly, to 50 ul PS and C4BP-depleted plasma (prepared as described by Koedam et al., J. Clin. Invest., 82:1236-1243 (1988)) was added 50 ul cephalin-kaolin reagent, 25 ul APC (Koedam et al., ibid) at 5 ug/ml and 15 to 45 ul recombinant PS variants (0-4 ug/ml) diluted in Michaelis buffer (28.5 mM sodium acetate, 28.5 mM sodium barbital and 116 mM NaCl, pH 7.35) and maintained for 3 minutes at 37C. Clotting was initiated by addition of 50 ul of 25 mM CaCl2 and the clotting time was measured in an Amelung-Coagulometer KC10.
(§2) The ability of the variants to serve as a cofactor for APC was tested in a clotting assay. The clotting assay was performed as described in Example 2D. To examine the effects of thrombin on recombinant PS variants APC cofactor activity, one ml of purified recombinant PS variants listed above and prepared in Example 1D (4-40 ug/ml) was maintained with 1/20 vol (50 ul) of thrombin-Sepharose for 1 hour at 37C. in 50 mM Tris-HCl pH 7.5 containing […]. Thrombin-Sepharose was removed by centrifugation. Supernatants containing the thrombin-treated PS were stored at -20C. until used.
(§3) The PS-dependent prolongation of the clotting time was measured in an activated partial thromboplastin time system using PS and C4BP depleted plasma, APC and cephalin-kaolin reagent as described in Example 2D. Increasing amounts of recombinant PS or the triple variant treated without or with thrombin were added. Clotting was initiated by the addition of CaCl2 and the clotting time was measured. The results are presented as the means of duplicate values.

thrombin [4] = molecular target: T3, thrombin; assay: APC cofactor clotting assay after thrombin-Sepharose treatment of PS variants; assay type: biochemical
Description: as §1, §2, §3

[5] = system: anti-PS monoclonal antibody LJ-56; assay: Sandwich assay of LJ-56 reactivity to recombinant PS variant proteins; assay type: binding; details: LJ-56 0-10 ug/ml
Description: Reactivity of LJ-56 to the recombinant PS variant proteins gave essentially the same results when a sandwich detecting assay was performed. In the sandwich assay, a fixed amount of recombinant PS variants produced in Example 1B1) (50 ng for E424K and 100 ng for wild type, Q427E and K429E) were added to wells previously coated with rabbit anti-PS IgG at 10 ug/ml in coating buffer and treated to block nonspecific binding sites as described above. Following a maintenance period for 18 hours at room temperature, the wells were washed with TBS and 100 ul of serial dilutions of anti-PS monoclonal antibody LJ-56 (0-10 ug/ml) was added and maintained for 2 hours at room temperature. Detection of the immunoreactant products was accomplished with rabbit anti-mouse IgG conjugated to peroxidase (1:1000). The hydrolysis of […] was measure at 490 nm using a Vmax plate reader as described in Example 2A.

[6] = first disulfide loop variants, 0-150 ng/ml, calcium
[7] = final conc. 0.6 ug/ml, basal clotting 80

Chain of activated protein C (APC) (P04070 212-461 limits assumed): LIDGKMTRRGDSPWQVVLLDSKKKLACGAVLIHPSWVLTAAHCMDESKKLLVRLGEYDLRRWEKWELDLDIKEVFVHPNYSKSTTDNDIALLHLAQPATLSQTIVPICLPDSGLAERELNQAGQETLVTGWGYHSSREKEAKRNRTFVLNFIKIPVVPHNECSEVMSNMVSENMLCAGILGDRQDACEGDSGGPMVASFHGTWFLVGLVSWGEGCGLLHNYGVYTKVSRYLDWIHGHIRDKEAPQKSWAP
Chain of activated protein C (APC) (P04070 43-197 limits assumed): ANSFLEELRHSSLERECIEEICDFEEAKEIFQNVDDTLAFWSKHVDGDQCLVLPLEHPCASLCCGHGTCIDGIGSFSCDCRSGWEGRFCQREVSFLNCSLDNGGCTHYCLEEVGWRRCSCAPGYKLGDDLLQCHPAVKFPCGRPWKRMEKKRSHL

Molecule: PS: vitamin K-dependent protein of 75,000 molecular weight with 635 amino acid residues
Kd (C4BP): 1 to 5 nM

B3: I425A/I426A variant: recombinant human protein S with alanine in place of isoleucine at positions 425 and 426 (protein)
chain: ANSLLEETKQGNLERECIEELCNKEEAREVFENDPETDYFYPKYLVCLRSFQTGLFTAARQSTNAYPDLRSCVNAIPDQCSPLPCNEDGYMSCKDGKASFTCTCKPGWQGEKCEFDINECKDPSNINGGCSQICDNTPGSYHCSCKNGFVMLSNKKDCKDVDECSLKPSICGTAVCKNIPGDFECECPEGYRYNLKSKSCEDIDECSENMCAQLCVNYPGGYTCYCDGKKGFKLAQDQKSCEVVSVCLPLNLDTKYELLYLAEQFAGVVLYLKFRLPEISRFSAEFDFRTYDSEGVILYAESIDHSAWLLIALRGGKIEVQLKNEHTSKITTGGDVINNGLWNMVSVEELEHSISIKIAKEAVMDINKPGPLFKPENGLLETKVYFAGFPRKVESELIKPINPRLDGCIRSWNLMKQGASGIKEAAQEKQNKHCLVTVEKGSYYPGSGIAQFHIDYNNVSSAEGWHVNVTLNIRPSTGTGVMLALVSGNNTVPFAVSLVDSTSEKSQDILLSVENTVIYRIQALSLCSDQQSHLEFRVNRNNLELSTPLKIETISHEDLQRQLAVLDKAMKAKVATYLGGLPDVPFSATPVNAFYNGCMEVNINGVQLDLDEAISKHNDIRAHSCPSVWKKTKNS
binding to C4BP [1, 6]: failed to bind to C4BP at concentrations up to 50 ng/ml

B4: K432E variant: recombinant human protein S with Lys-432 replaced by Glu (protein)
chain: B3 chain with A425I, A426I, K432E
binding to C4BP [1, 6]: failed to bind to C4BP at concentrations up to 50 ng/ml

Continued, in another order:

binding to C4BP ([1]; thrombin domain variants, 0-100 ng/ml, in the presence of calcium): unaltered affinity for binding to C4BP
Clotting Time ([3]; concentration 1.19 ug/ml, without protein S 72 ± 2 seconds): 84 s
Clotting Time After Treatment (thrombin [4]; after thrombin treatment, concentration 1.19 ug/ml, without protein S 72 ± 2 seconds): 85 s
B1: R49L/R60L/R70I variant: recombinant protein S triple variant, arginines 49, 60 and 70 replaced by leucine or isoleucine (protein)
chain: B3 chain with R49L, R60L, R70I, A425I, A426I
conversion of upper band into lower band by thrombin (thrombin [2]): not converted into a lower band, indicating that this triple variant was resistant to thrombin
APC cofactor activity ([3]; not treated with thrombin): higher APC cofactor activity (as defined by prolongation of the clotting time) than recombinant PS; also recorded: retained full APC cofactor activity
APC cofactor activity after treatment with thrombin (thrombin [4]; thrombin-Sepharose 1 hour at 37C): retained its APC cofactor activity; also recorded: remained unchanged; also recorded: completely resistant to inactivation by thrombin

Clotting Time [3, 7]: 94 s
B2: Q427E variant: recombinant human protein S with Gln-427 replaced by Glu (protein)
chain: B3 chain with A425I, A426I, Q427E
binding to C4BP [1, 6]: bound to C4BP with the same apparent affinity as the wild type recombinant molecule

Clotting Time [3, 7]: 97 s
B5: E424K variant: recombinant human protein S with Glu-424 replaced by Lys (protein)
chain: B3 chain with E424K, A425I, A426I
binding to C4BP [1, 6]: bound to C4BP with the same apparent affinity as the wild type recombinant molecule

Clotting Time ([3]; final conc. 1.8 ug/ml, basal clotting 80): 88 s
clotting time at maximal inhibition of clotting ([3]; increasing amounts of variant): approximately 95 seconds
B6: K429E variant: recombinant human protein S with glutamic acid in place of lysine at position 429 (protein)
chain: B3 chain with A425I, A426I, K429E
binding to C4BP [1, 6]: failed to bind to C4BP at concentrations up to 50 ng/ml
anticoagulant activity ([3]; in comparison with the basal clotting time of 80 seconds): anticoagulant activity increased linearly with increasing volumes of variant PS
recognition by LJ-56 [5]: not recognized
